# Measurements from the Immune Epitope Database (IEDB).
# Legend:
# HLA-B*07:02 [1] = assay: IEDB peptide-MHC binding, purified MHC/competitive/fluorescence; filed as Kd, often an IC50 or EC50 that approximates it; ≥ and ≤ were set here for values at or beyond the usual limits of such assays
# HLA-B*08:01 [2] = assay: IEDB peptide-MHC binding, purified MHC/competitive/fluorescence; ≥ and ≤ were set here for values at or beyond the usual limits of such assays
# HLA-A*03:01 [3] = assay: as above
# HLA-A*11:01 = assay: as above; conditions: source organism: Variola virus
# HLA-B*40:01 [4] = assay: IEDB peptide-MHC binding, purified MHC/competitive/fluorescence; filed as Kd, often an IC50 or EC50 that approximates it; ≥ and ≤ were set here for values at or beyond the usual limits of such assays
# HLA-A*24:02 = assay: IEDB peptide-MHC binding, purified MHC/competitive/fluorescence; ≥ and ≤ were set here for values at or beyond the usual limits of such assays; conditions: source organism: Zaire ebolavirus
# HLA-A*02:12 = assay: IEDB peptide-MHC binding, purified MHC/direct/fluorescence; filed as Kd, often an IC50 or EC50 that approximates it; ≥ and ≤ were set here for values at or beyond the usual limits of such assays; conditions: source organism: Orthohantavirus sangassouense
# HLA-A*02:11 = assay: as above; conditions: source organism: Orthohantavirus sangassouense
# HLA-A*02:01 [5] = assay: as above; conditions: source organism: Orthohantavirus hantanense
# HLA-A*02:19 = assay: as above; conditions: source organism: Orthohantavirus sangassouense
# HLA-C*12:03 = assay: as above
# HLA-A*69:01 = assay: as above; conditions: source organism: Orthohantavirus hantanense
# HLA-A*02:01 [6] = assay: IEDB peptide-MHC binding, purified MHC/competitive/fluorescence; ≥ and ≤ were set here for values at or beyond the usual limits of such assays
# HLA-B*15:01 [7] = assay: as above; conditions: source organism: Vaccinia virus WR
# HLA-B*08:01 [8] = assay: IEDB peptide-MHC binding, purified MHC/competitive/fluorescence; filed as Kd, often an IC50 or EC50 that approximates it; ≥ and ≤ were set here for values at or beyond the usual limits of such assays; conditions: source organism: Escherichia coli
# HLA-B*39:01 = assay: as above; conditions: source organism: Escherichia coli
# HLA-C*15:02 = assay: IEDB peptide-MHC binding, purified MHC/direct/fluorescence; filed as Kd, often an IC50 or EC50 that approximates it; ≥ and ≤ were set here for values at or beyond the usual limits of such assays
# HLA-A*01:01 [9] = assay: IEDB peptide-MHC binding, purified MHC/competitive/radioactivity; filed as Kd, often an IC50 or EC50 that approximates it; ≥ and ≤ were set here for values at or beyond the usual limits of such assays; conditions: source organism: Dengue virus 4 Philippines/H241/1956
# HLA-A*01:01 [10] = assay: IEDB peptide-MHC binding, purified MHC/competitive/fluorescence; filed as Kd, often an IC50 or EC50 that approximates it; ≥ and ≤ were set here for values at or beyond the usual limits of such assays
# HLA-B*57:01 = assay: IEDB peptide-MHC binding, purified MHC/direct/fluorescence; filed as Kd, often an IC50 or EC50 that approximates it; ≥ and ≤ were set here for values at or beyond the usual limits of such assays
# HLA-B*58:01 = assay: as above
# HLA-B*15:42 = assay: IEDB peptide-MHC binding, purified MHC/competitive/fluorescence; filed as Kd, often an IC50 or EC50 that approximates it; ≥ and ≤ were set here for values at or beyond the usual limits of such assays; conditions: source organism: Homo sapiens
# HLA-A*29:02 = assay: as above; conditions: source organism: Homo sapiens
# HLA-B*83:01 = assay: as above; conditions: source organism: Homo sapiens
# HLA-B*45:06 = assay: as above; conditions: source organism: Homo sapiens
# HLA-B*15:01 [11] = assay: as above; conditions: source organism: Shigella boydii CDC 3083-94
# HLA-B*51:01 = assay: as above; conditions: source organism: Shigella boydii CDC 3083-94
# HLA-C*06:02 = assay: IEDB peptide-MHC binding, purified MHC/direct/fluorescence; filed as Kd, often an IC50 or EC50 that approximates it; ≥ and ≤ were set here for values at or beyond the usual limits of such assays
# HLA-A*02:06 = assay: IEDB peptide-MHC binding, purified MHC/competitive/radioactivity; filed as Kd, often an IC50 or EC50 that approximates it; ≥ and ≤ were set here for values at or beyond the usual limits of such assays; conditions: source organism: Vaccinia virus WR
# HLA-A*02:02 = assay: as above; conditions: source organism: Vaccinia virus WR
# HLA-A*02:01 [12] = assay: as above; conditions: source organism: Vaccinia virus WR
# HLA-A*02:03 = assay: as above; conditions: source organism: Vaccinia virus WR
# HLA-C*05:01 = assay: IEDB peptide-MHC binding, purified MHC/direct/fluorescence; filed as Kd, often an IC50 or EC50 that approximates it; ≥ and ≤ were set here for values at or beyond the usual limits of such assays; conditions: source organism: human gammaherpesvirus 4
# HLA-A*02:01 [13] = assay: IEDB peptide-MHC binding, purified MHC/competitive/fluorescence; filed as Kd, often an IC50 or EC50 that approximates it; ≥ and ≤ were set here for values at or beyond the usual limits of such assays; conditions: source organism: West Nile virus
# HLA-B*46:01 = assay: IEDB peptide-MHC binding, purified MHC/direct/fluorescence; filed as Kd, often an IC50 or EC50 that approximates it; ≥ and ≤ were set here for values at or beyond the usual limits of such assays; conditions: source organism: West Nile virus
# HLA-B*15:09 = assay: as above; conditions: source organism: West Nile virus strain PTRoxo
# HLA-B*48:01 = assay: as above; conditions: source organism: West Nile virus
# HLA-B*18:01 = assay: as above; conditions: source organism: West Nile virus
# HLA-B*40:01 [14] = assay: as above; conditions: source organism: West Nile virus
# HLA-A*03:01 [15] = assay: as above; conditions: source organism: West Nile virus
# HLA-B*44:02 = assay: as above; conditions: source organism: West Nile virus
# HLA-A*31:01 = assay: as above; conditions: source organism: West Nile virus
# HLA-B*27:05 = assay: as above; conditions: source organism: West Nile virus
# HLA-B*07:02 [16] = assay: as above; conditions: source organism: West Nile virus
# [17] = source organism: Zaire ebolavirus
# [18] = source organism: Sudan ebolavirus
# [19] = source organism: Vaccinia virus WR
# [20] = source organism: Giardia lamblia ATCC 50803
# [21] = source organism: West Nile virus
sequence,measurement,setting,value
APSPYNSRF,Kd,HLA-B*07:02 [1]; source organism: Influenza A virus,7.1 nM
AVARKHHTK,IC50,HLA-B*08:01 [2]; source organism: Variola virus,≥ 436000 nM
same,IC50,HLA-A*03:01 [3]; source organism: Variola virus,1460 nM
same,IC50,HLA-A*11:01,471 nM
EEAKLFFQV,Kd,HLA-B*40:01 [4]; source organism: Yersinia pestis Antiqua,6.4 nM
ELRTFSILN,IC50,HLA-B*08:01 [2]; [17],≥ 302000 nM
same,IC50,HLA-A*24:02,30100 nM
ERQLAKAII,IC50,HLA-B*08:01 [2]; source organism: Vaccinia virus Copenhagen,≥ 111000 nM
FIYGYLEPV,Kd,HLA-A*02:12,≤ 1 nM
same,Kd,HLA-A*02:11,≤ 1 nM
same,Kd,HLA-A*02:01 [5],≤ 1 nM
same,Kd,HLA-A*02:19,2 nM
same,Kd,HLA-C*12:03; source organism: Orthohantavirus,12 nM
same,Kd,HLA-A*69:01,≤ 1 nM
FLRATTELR,IC50,HLA-B*08:01 [2]; [17],≥ 87800 nM
same,IC50,HLA-A*03:01 [3]; [18],26100 nM
same,IC50,HLA-A*02:01 [6]; [18],56200 nM
FMHEQGYSH,IC50,HLA-B*15:01 [7],14800 nM
same,IC50,HLA-B*08:01 [2]; [19],≥ 301000 nM
same,IC50,HLA-A*02:01 [6]; [19],9720 nM
FQRAIMNAM,Kd,HLA-B*08:01 [8],154 nM
same,Kd,HLA-B*39:01,37.7 nM
same,Kd,HLA-C*12:03; source organism: Escherichia coli MS 119-7,99 nM
FTTNIWMKF,Kd,HLA-C*15:02; source organism: dengue virus type 4,≥ 20000 nM
same,Kd,HLA-A*01:01 [9],5160 nM
GDIKASNIV,IC50,HLA-B*08:01 [2]; [19],≥ 298000 nM
GLLIVKTVL,IC50,HLA-B*08:01 [2]; [17],≥ 135000 nM
same,IC50,HLA-A*24:02,≥ 105000 nM
same,IC50,HLA-A*02:01 [6]; [17],294 nM
HEYQGKAVL,Kd,HLA-B*40:01 [4]; source organism: Bacillus anthracis str. A0488,5.1 nM
IEHALAHQL,Kd,HLA-B*40:01 [4]; source organism: Salmonella enterica subsp. enterica serovar Typhi,7.7 nM
ITDMRNGFN,Kd,HLA-A*01:01 [10]; source organism: Escherichia coli O139:H28 str. E24377A,≥ 20000 nM
KTWGQYWQV,Kd,HLA-C*15:02; source organism: Homo sapiens,49 nM
LEPRVFGWM,Kd,HLA-B*40:01 [4]; source organism: Escherichia coli F11,71.3 nM
LETCHRNAF,Kd,HLA-B*40:01 [4]; source organism: Escherichia coli 536,1030 nM
LLAKSVFNSLY,Kd,HLA-A*01:01 [10]; source organism: Influenza A virus (A/X-31(H3N2)),93 nM
LPFQNIHPITI,Kd,HLA-B*07:02 [1]; source organism: Influenza A virus (A/duck/Bavaria/1/1977(H1N1)),57.4 nM
NELGVPFHL,Kd,HLA-B*40:01 [4]; source organism: Influenza A virus (A/nt/60/1968(H3N2)),2.1 nM
NPRMFLAM,Kd,HLA-B*07:02 [1]; source organism: Influenza A virus (A/Fort Monmouth/1/1947-mouse adapted(H1N1)),372 nM
RTHEESLRL,Kd,HLA-B*57:01; [20],2080 nM
same,Kd,HLA-B*58:01; [20],1480 nM
same,Kd,HLA-C*15:02; [20],50 nM
STMRRMALR,Kd,HLA-B*15:42,≥ 5000 nM
same,Kd,HLA-A*29:02,≥ 20000 nM
same,Kd,HLA-B*83:01,≥ 5000 nM
same,Kd,HLA-A*01:01 [10]; source organism: Homo sapiens,≥ 20000 nM
same,Kd,HLA-B*45:06,≥ 5000 nM
TPAVCGPVI,Kd,HLA-B*15:01 [11],≥ 20000 nM
same,Kd,HLA-B*51:01,1860 nM
same,Kd,HLA-B*07:02 [1]; source organism: Shigella boydii CDC 3083-94,23.8 nM
VLPFDIKYI,Kd,HLA-C*06:02; source organism: Vaccinia virus L-IPV,3390 nM
same,Kd,HLA-A*02:06,506 nM
same,Kd,HLA-A*02:02,135 nM
same,Kd,HLA-A*02:01 [12],15 nM
same,Kd,HLA-A*02:03,9.68 nM
VTDEGTSSF,Kd,HLA-C*06:02; source organism: human gammaherpesvirus 4,332 nM
same,Kd,HLA-C*05:01,≤ 1 nM
YTMDGEYRL,Kd,HLA-A*02:01 [13],1.37 nM
same,IC50,HLA-A*02:01 [6]; source organism: West Nile virus NY-99,291 nM
same,Kd,HLA-B*46:01,≥ 20000 nM
same,Kd,HLA-B*15:09,≥ 20000 nM
same,Kd,HLA-B*48:01,≥ 20000 nM
same,Kd,HLA-B*57:01; [21],≥ 20000 nM
same,Kd,HLA-B*18:01,≥ 20000 nM
same,Kd,HLA-B*58:01; [21],≥ 20000 nM
same,Kd,HLA-B*40:01 [14],≥ 20000 nM
same,Kd,HLA-A*03:01 [15],≥ 20000 nM
same,Kd,HLA-C*15:02; [21],85 nM
same,Kd,HLA-B*44:02,≥ 20000 nM
same,Kd,HLA-A*31:01,≥ 20000 nM
same,Kd,HLA-B*27:05,≥ 20000 nM
same,Kd,HLA-B*07:02 [16],≥ 20000 nM
same,Kd,HLA-C*12:03; [21],347 nM
